For test [1], the target named is Apoptosis-inducing factor 1 (AIFM1) (bovine (endogenous in bovine heart mitochondria)). Briefly: complexome profiling.
Test [2] has as its target cytochrome c oxidase (COX), monomeric (bovine (endogenous in bovine heart mitochondria)) (UniProt P68530). In words: complexome profiling.

The record followed here is publication PMC8488679.

UniProt P68530, sequence (P68530 whole entry, looked up): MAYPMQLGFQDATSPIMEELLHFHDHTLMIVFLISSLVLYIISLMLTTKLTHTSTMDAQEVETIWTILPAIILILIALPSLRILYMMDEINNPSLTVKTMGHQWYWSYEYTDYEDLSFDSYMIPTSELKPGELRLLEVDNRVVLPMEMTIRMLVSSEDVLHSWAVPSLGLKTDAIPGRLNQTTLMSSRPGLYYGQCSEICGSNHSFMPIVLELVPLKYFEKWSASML

Consider “Apoptosis-inducing factor 1 (AIFM1) (natural protein)”, for which the stoichiometry N (in general, the number of molecules, sites or subunits per partner or assembly) in test [1] is 2. The percent of monomeric COX engaged in the complex in test [2] was 10%.
